Changes are numbered by the printed parent chain. Names may count otherwise.
Experiments:
recombinant human PSMA = molecular target: T1, recombinant human PSMA (human, UniProt Q04609 44-750); assay: SPR (Biacore 8K), antibody captured on anti-Fc, PSMA in solution; average of 2
T1 construct: also called hu PSMA; prostate-specific membrane antigen
Experimental: (§1) The binding affinity of anti-PSMA to the recombinant human or cynomolgus PSMA was determined by surface plasmon resonance (SPR) using a Biacore 8K instrument (ELN PSMA-00721). The antibodies were captured on a goat anti-Fc antibody-modified C1 chip and titrated with 3-fold serial dilutions of PSMA antigen spanning concentrations of 100 nM to 3.7 nM (human PSMA) or […] 22.2-600 nM for cyno PSMA. The association and dissociation were monitored for 3 and 60 minutes, respectively, using a flow rate of 50 μL/min. Raw binding data was referenced by subtracting the analyte binding signals from blanks and analyzed using a 1:1 Langmuir binding model by the Biacore Insight evaluation software to obtain the kinetics which were used to calculate the binding affinity. The anti-PSMA were captured using an anti-human Fc antibody and the antigens were injected in solution.

[1] = molecular target: T2, recombinant cynomolgus PSMA (cynomolgus, UniProt A0A2K5VNZ0 44-750); assay: SPR (Biacore 8K), antibody captured on anti-Fc, PSMA in solution; average of 3
T2 construct: also called cy PSMA; cyno PSMA
Experimental: as §1

[2] = molecular target: T2, recombinant cynomolgus PSMA; assay: SPR (Biacore 8K), antibody captured on anti-Fc, PSMA in solution; average of 2
Experimental: as §1

T1 sequence (Q04609 44-750 limits assumed): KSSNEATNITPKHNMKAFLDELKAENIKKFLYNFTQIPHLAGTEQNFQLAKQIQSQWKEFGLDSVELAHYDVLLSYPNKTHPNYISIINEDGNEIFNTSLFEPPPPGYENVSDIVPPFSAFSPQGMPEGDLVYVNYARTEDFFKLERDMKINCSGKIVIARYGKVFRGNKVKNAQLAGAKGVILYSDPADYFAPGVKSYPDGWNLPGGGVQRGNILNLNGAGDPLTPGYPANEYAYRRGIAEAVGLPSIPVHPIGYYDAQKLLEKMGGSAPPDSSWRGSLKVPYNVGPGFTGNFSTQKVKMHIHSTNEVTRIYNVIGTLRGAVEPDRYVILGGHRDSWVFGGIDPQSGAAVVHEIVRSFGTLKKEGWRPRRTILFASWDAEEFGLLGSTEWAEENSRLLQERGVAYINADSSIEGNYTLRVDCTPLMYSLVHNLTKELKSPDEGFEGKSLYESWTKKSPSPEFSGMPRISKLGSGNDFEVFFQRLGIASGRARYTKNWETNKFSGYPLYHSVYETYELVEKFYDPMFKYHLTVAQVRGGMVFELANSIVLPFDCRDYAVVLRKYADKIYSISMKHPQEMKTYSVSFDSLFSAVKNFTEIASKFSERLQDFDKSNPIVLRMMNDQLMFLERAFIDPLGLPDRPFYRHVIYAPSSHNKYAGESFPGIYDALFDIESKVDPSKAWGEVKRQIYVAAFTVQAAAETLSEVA

B1: PS3B1391 (bispecific antibody, human IgG1, kappa, L234A L235A)
chain: EIVLTQSPATLSASPGERVTLSCSASSSVSYMNWYQQKPGQAPRRWIYDSSKLASGVPARFSGSGSGRDYTLTISSLEPEDFAVYYCQQWSRNPPTFGGGTKVEIKGGSEGKSSGSGSESKSTGGSQVQLVQSGAEVKKPGSSVKVSCKASGYTFTRSTMHWVKQAPGQGLEWIGYINPSSAYTNYNQKFQGRVTLTADKSTSTAYMELSSLRSEDTAVYYCASPQVHYDYAGFPYWGQGTLVTVSSEPKSSDKTHTCPPCPAPEAAGGPSVFLFPPKPKDTLMISRTPEVTCVVVSVSHEDPEVKFNWYVDGVEVHNAKTKPREEQYNSTYRVVSVLTVLHQDWLNGKEYKCKVSNKALPAPIEKTISKAKGQPREPQVYTLPPSREEMTKNQVSLWCLVKGFYPSDIAVEWESNGQPENNYKTTPPVLDSDGSFFLYSKLTVDKSRWQQGNVFSCSVMHEALHNHYTQKSLSLSPGK
heavy: EVQLVESGGGLVKPGGSLRLSCVASGFTFSFYSMNWVRQAPGKGLDWVSSISSSGNYIYYADSVKGRFTISRDNAKNSLHLHMNSLKAEDTAMYFCARSYSGSYDAFDFWGQGTMVTVSSASTKGPSVFPLAPSSKSTSGGTAALGCLVKDYFPEPVTVSWNSGALTSGVHTFPAVLQSSGLYSLSSVVTVPSSSLGTQTYICNVNHKPSNTKVDKKVEPKSCDKTHTCPPCPAPEAAGGPSVFLFPPKPKDTLMISRTPEVTCVVVSVSHEDPEVKFNWYVDGVEVHNAKTKPREEQYNSTYRVVSVLTVLHQDWLNGKEYKCKVSNKALPAPIEKTISKAKGQPREPQVYTLPPSREEMTKNQVSLSCAVKGFYPSDIAVEWESNGQPENNYKTTPPVLDSDGSFFLVSKLTVDKSRWQQGNVFSCSVMHEALHNRFTQKSLSLSPGK
light: EIVMTQSPGTLSLSPGERATLSCRASQSVSSSFLAWYQQKPGQAPRLLISGASSRATGIPDRFSVSGSGTDFTLTISRLEPEDFAVYYCQQYGVSPWTFGQGTKVEIKRTVAAPSVFIFPPSDEQLKSGTASVVCLLNNFYPREAKVQWKVDNALQSGNSQESVTEQDSKDSTYSLSSTLTLSKADYEKHKVYACEVTHQGLSSPVTKSFNRGEC
notes: HC 1: N-term scFv LH CD3B2030 N106A; HC 2: N-term Fab PSMHB49SC1133_011A11_1; LC1 is given as NA; also called PS3B1391.002
B1 showed a Kd (recombinant human PSMA) of 0.1 nM, a koff (recombinant human PSMA) of 4.8e-05 s⁻¹ and a kon (recombinant human PSMA) of 480000 M⁻¹ s⁻¹. The Kd [1] was 0.126 nM, the koff [1] was 1.96e-05 s⁻¹ and the kon [1] was 157000 M⁻¹ s⁻¹.

B2: PS3B1396 (bispecific antibody, human IgG1, lambda, L234A L235A)
chain: B1 chain
heavy: EVQLVESGGGLVQPGGSLRLSCAASGFTFSSYAMSWVRQAPGKGLEWVSAISGGIGSTYYADSVKGRFTISRDNSKNTLWLQMNSLRAEDTAVYYCAKDAVGATPYYFDYWGQGTLVTVSSASTKGPSVFPLAPSSKSTSGGTAALGCLVKDYFPEPVTVSWNSGALTSGVHTFPAVLQSSGLYSLSSVVTVPSSSLGTQTYICNVNHKPSNTKVDKKVEPKSCDKTHTCPPCPAPEAAGGPSVFLFPPKPKDTLMISRTPEVTCVVVSVSHEDPEVKFNWYVDGVEVHNAKTKPREEQYNSTYRVVSVLTVLHQDWLNGKEYKCKVSNKALPAPIEKTISKAKGQPREPQVYTLPPSREEMTKNQVSLSCAVKGFYPSDIAVEWESNGQPENNYKTTPPVLDSDGSFFLVSKLTVDKSRWQQGNVFSCSVMHEALHNRFTQKSLSLSPGK
light: QSVLTQPPSVSAAPGQKVTISCSGSSSNIGINYVSWYQQLPGTAPKLLIYDNNKRPSGIPDRFSGSKSGTSATLGITGLQTGDEADYYCGTWDSSLSAVVFGGGTKLTVLGQPKAAPSVTLFPPSSEELQANKATLVCLISDFYPGAVTVAWKADSSPVKAGVETTTPSKQSNNKYAASSYLSLTPEQWKSHRSYSCQVTHEGSTVEKTVAPTECS
notes: HC1 (Knob3): CD3B2030-N106A-scFv LH, HC2 (Hole3): PSMB896-G100A-Fab; LC1 is given as NA; also called PS3B1396.002
B2 gave a Kd (recombinant human PSMA) of 0.395 nM, a koff (recombinant human PSMA) of 8.82e-05 s⁻¹ and a kon (recombinant human PSMA) of 224000 M⁻¹ s⁻¹. The Kd [2] was 5.07 nM, the koff [2] was 0.0019 s⁻¹ and the kon [2] was 587000 M⁻¹ s⁻¹.

B3: PS3B1508 (bispecific antibody, human IgG1, lambda, L234A L235A)
chain: DIQMTQSPSSLSASVGDRVTITCRARQSIGTAIHWYQQKPGKAPKLLIKYASESISGVPSRFSGSGSGTDFTLTISSLQPEDFATYYCQQSGSWPYTFGQGTKLEIKGGSEGKSSGSGSESKSTGGSEVQLVESGGGLVKPGGSLRLSCAASGFTFSRYNMNWVRQAPGKGLEWVSSISTSSNYIYYADSVKGRFTFSRDNAKNSLDLQMSGLRAEDTAIYYCTRGWGPFDYWGQGTLVTVSSEPKSSDKTHTCPPCPAPEAAGGPSVFLFPPKPKDTLMISRTPEVTCVVVSVSHEDPEVKFNWYVDGVEVHNAKTKPREEQYNSTYRVVSVLTVLHQDWLNGKEYKCKVSNKALPAPIEKTISKAKGQPREPQVYTLPPSREEMTKNQVSLWCLVKGFYPSDIAVEWESNGQPENNYKTTPPVLDSDGSFFLYSKLTVDKSRWQQGNVFSCSVMHEALHNHYTQKSLSLSPGK
heavy: B2 heavy
light: B2 light
notes: HC1 (Knob3): CD3W245-LH-scFv; HC2 (Hole3-RF) PSMB896-G100A-Fab-RF: IgG1 AAS; LC1 is given as NA; also called PS3B1508.003
B3 gave a Kd (recombinant human PSMA) of 0.382 nM, a koff (recombinant human PSMA) of 8.89e-05 s⁻¹ and a kon (recombinant human PSMA) of 232000 M⁻¹ s⁻¹. For the same binder, the Kd [2] was 2.2 nM, the koff [2] was 0.00323 s⁻¹ and the kon [2] was 1.46e+06 M⁻¹ s⁻¹.

B4: PS3B1505 (bispecific antibody, human IgG1, lambda, L234A L235A)
heavy 1: QVQLQQSGPRLVRPSQTLSLTCAISGDSVFNNNAAWSWIRQSPSRGLEWLGRTYYRSKWLYDYAVSVKSRITVNPDTSRNQFTLQLNSVTPEDTALYYCARGYSSSFDYWGQGTLVTVSSASTKGPSVFPLAPSSKSTSGGTAALGCLVKDYFPEPVTVSWNSGALTSGVHTFPAVLQSSGLYSLSSVVTVPSSSLGTQTYICNVNHKPSNTKVDKKVEPKSCDKTHTCPPCPAPEAAGGPSVFLFPPKPKDTLMISRTPEVTCVVVSVSHEDPEVKFNWYVDGVEVHNAKTKPREEQYNSTYRVVSVLTVLHQDWLNGKEYKCKVSNKALPAPIEKTISKAKGQPREPQVYTLPPSREEMTKNQVSLTCLVKGFYPSDIAVEWESNGQPENNYKTTPPVLDSDGSFLLYSKLTVDKSRWQQGNVFSCSVMHEALHNHYTQKSLSLSPGK
light 1: QSALTQPASVSGSPGQSITISCTGTSSNIGTYKFVSWYQQHPDKAPKVLLYEVSKRPSGVSSRFSGSKSGNTASLTISGLQAEDQADYHCVSYAGSGTLLFGGGTKLTVLGQPKAAPSVTLFPPSSEELQANKATLVCLISDFYPGAVTVAWKADSSPVKAGVETTTPSKQSNNKYAASSYLSLTPEQWKSHRSYSCQVTHEGSTVEKTVAPTECS
heavy 2: B2 heavy with S370T, A372L, V411Y, K413R, R439H, F440Y
light 2: B2 light
notes: HC1 CD3B376-Fab x HC2 PSMB896-G100A IgG1 DuoBody; also called PS3B1505.001
With B4 the Kd (recombinant human PSMA) was 0.393 nM, the koff (recombinant human PSMA) was 9.1e-05 s⁻¹ and the kon (recombinant human PSMA) was 232000 M⁻¹ s⁻¹. The Kd [2] was 5.01 nM, the koff [2] was 0.00124 s⁻¹ and the kon [2] was 429000 M⁻¹ s⁻¹.

Source: patent US20250145711A1 (Janssen / Centocor, published 2025)
